Assay [1] concerns the target peptide with N-terminal lysine. As to the kind of experiment: biolayer interferometry (Blitz), peptide-coated sensor, NAAB in 1x PBS, 1:1 fit, kd/ka.
Assay [2] deals with peptide with N-terminal valine. The description is as above.
In assay [3] the target is T1, peptide with N-terminal histidine.
T1 construct: also called peptides with N-terminal histidine residues
The description is as above.

Assay [4] shares this target. In words: biolayer interferometry kinetics; reference: truncated wild-type HisRS fragment.

This is an account of results in patent US20210072252A1 (WASHINGTON UNIVERSITY, published 2021).

One may read the Kd as the equilibrium constant for the complex coming apart. Higher therefore signals lower affinity.

B1: LysNAAB (enzyme)
chain: ANDKSRQTFVVRSKILAAIRQFMVARGFMEVETPMMQVIPGGASARPFITHHNALDLDMYLRIAPELYLKRLVVGGFERVFEINRNFRNEGISVRHNPEFTMMELYMAYADYHDLIELTESLFRTLAQEVLGTTKVTYGEHVFDFGKPFEKLTMREAIKKYRPETDMADLDNFDAAKALAESIGITVEKSWGLGRIVTEIFDEVAEAHLIQPTFITEYPAEVSPLARRNDVNPEITDRFEFFIGGREIGNGFSELNDAEDQAERFQEQVNAKAAGDDEAMFYDEDYVTALEYGLPPTAGLGIGIDRMIMLFTNSHTIRDVILFPAMRP
notes: Purified on GSTrap; also called Lysine
For the molecule B1, binding in assay [1] was characterised by a dissociation constant (Kd) of 2610 nM.

B2: ValNAAB (enzyme)
chain: MEKTYNPQDIEQPLYEHWEKQGYFKPNGDESQESFCIMIPPPNVTGSLHMGHAFQQTIMDTMIRYQRMQGKNTLWQVGTDHAGIATQMVVERKIAAEEGKTRHDYGREAFIDKIWEWKAESGGTITRQMRRLGNSVDWERERFTMDEGLSNAVKEVFVRLYKEDLIYRGKRLVNWDPKLRTAISDLEVENRESKGSMWHIRYPLADGAKTADGKDYLVVATTRPETLLGDTGVAVNPEDPRYKDLIGKYVILPLVNRRIPIVGDEHADMEKGTGCVKITPAHDFNDYEVGKRHALPMINILTFDGDIRESAQVFDTKGNESDVYSSEIPAEFQKLERFAARKAVVAAIDALGLLEEIKPHDLTVPYGDRGGVVIEPMLTDQWYVRADVLAKPAVEAVENGDIQFVPKQYENMYFSWMRDIQDWCISRQLWWGHRIPAWYDEAGNVYVGRNEEEVRKENNLGADVALRQDEDVLDTWFSSALWTFSTLGWPENTDALRQFHPTSVMVSGFDIIFFWIARMIMMTMHFIKDENGKPQVPFHTVYMTGLIRDDEGQKMSKSKGNVIDPLDMVDGISLPELLEKRTGNMMQPQLADKIRKRTEKQFPNGIEPHGTDALRFTLAALASTGRDINWDMKRLEGYRNFCNKLWNASRFVLMNTEGQDCGFNGGEMTLSLADRWILAEFNQTIKAYREALDSFRFDIAAGILYEFTWNQFCDWYLELTKPVMNGGTEAELRGTRHTLVTVLEGLLRLAHPIIPFITETIWQ
notes: Purified on GSTrap; also called Valine
In turn, B2 yielded a dissociation constant Kd in assay [2] of 1220 nM.

B3: engineered HisNAAB (3-180) (designed binder)
chain: KNIQAIRGMNDYLPGETAIWQRIEGTLKNVLGSYGYSEIRLPIVEQTPLFKRAIGEVTDVVEKEMYTFEDRNGDSLTLRPEGTAGCVRAGIEHGLLYNQEQRLWYIGPMFGNAPQFHQLGCEVFGLQGPDIDAELIMLTARWWRALGISEHVTLELNSIGSLEARANYRDA
In the case of B3, the affinity in assay [3], expressed as Kd, was 98700 nM. For the same molecule, the “fold improvement in binding affinity against the wild-type fragment” value in assay [4] was approximately 10 fold.
